Results as given in publication PMC5099943, “Recombinant L-asparaginase 1 from Saccharomyces cerevisiae: an allosteric enzyme with antineoplastic activity” (Scientific Reports, 2016).

B1: ScASNase1 (L-asparaginase 1) (Saccharomyces cerevisiae S288C) (protein)
chain: LPRIKILGTGGTIASKAIDSSQTAGYHVDLTIQDLLDAIPDISKVCDIEYEQLCNVDSKDINEDILYKIYKGVSESLQAFDGIVITHGTDTLSETAFFIESTIDAGDVPIVFVGSMRPSTSVSADGPMNLYQAICIASNPKSRGRGVLVSLNDQISSGYYITKTNANSLDSFNVRQGYLGNFVNNEIHYYYPPVKPQGCHKFKLRVDGKHFKLPEVCILYAHQAFPPAIVNLVADKYDGIVLATMGAGSLPEEVNETCMKLSLPIVYSKRSMDGMVPIANVPKKGSKEDNLIASGYLSPEKSRILLQLCLAGNYTLEEIKHVFTGVYGG
B2: EcASNase2 (L-ASNase type II from Escherichia coli, commercial) (Escherichia coli K-12) (protein)
chain: LPNITILATGGTIAGGGDSATKSNYTVGKVGVENLVNAVPQLKDIANVKGEQVVNIGSQDMNDNVWLTLAKKINTDCDKTDGFVITHGTDTMEETAYFLDLTVKCDKPVVMVGAMRPSTSMSADGPFNLYNAVVTAADKASANRGVLVVMNDTVLDGRDVTKTNTTDVATFKSVNYGPLGYIHNGKIDYQRTPARKHTSDTPFDVSKLNELPKVGIVYNYANASDLPAKALVDAGYDGIVSAGVGNGNLYKSVFDTLATAAKTGTAVVRSSRVPTGATTQDAEVDDAKYGFVASGTLNPQKARVLLQLALTQTKDPQQIQQIFNQY

Experiments:
purified protein [1] = substrate: NC(=O)C[C@H](N)C(=O)O; assay: purified protein; assay type: biochemical, Saccharomyces cerevisiae; conditions: 50 mM Tris-HCl pH 8.0, 37 °C, no L-glutamine, sigmoidal, nH 2.2 ± 0.3
purified protein [2] = substrate: NC(=O)C[C@H](N)C(=O)O; assay: purified protein; conditions: 50 mM Tris-HCl pH 8.0, 37 °C, nH 1.1 ± 0.1

| Protein | K0.5 (purified protein [1]) [µM] | Vmax (purified protein [1]) [µmol/min] | kcat (purified protein [1]) [s⁻¹] | Km (purified protein [2]) [µM] | Vmax (purified protein [2]) [µmol/min] | kcat (purified protein [2]) [s⁻¹] | kcat/Km (purified protein [2]) [M⁻¹ s⁻¹] |
| --- | --- | --- | --- | --- | --- | --- | --- |
| B1 | 75 ± 27 | 0.042 | 217 ± 14 |  |  |  |  |
| B2 |  |  |  | 23 ± 5 | 0.032 | 134 | 5.8e+06 |
